Patent US20240132578A1

What was measured:
Experiment in all cases: cell-based or functional assay
[1] = biological target: HIV-1 JR-CSF Env R304A (HIV-1 (isolate JR-CSF, clade B)) (UniProt P20871)
[2] = biological target: HIV-1 93IN905 Env (pseudovirus) (HIV-1)
[3] = biological target: HIV-1 JRFL Env (pseudovirus) (HIV-1)
[4] = biological target: HIV-1 APV13 Env (pseudovirus) (HIV-1)
[5] = biological target: HIV-1 92BR020 Env (pseudovirus) (HIV-1)
[6] = biological target: HIV-1 envelope glycoprotein (Env) of isolate CMU02 (HIV-1)
[7] = biological target: HIV-1 NL43 envelope glycoprotein (Env), clade B pseudovirus (HIV-1)
[8] = biological target: HIV-1 92TH021 envelope glycoprotein (Env), clade AE pseudovirus (HIV-1)
[9] = biological target: HIV-1 APV6 envelope glycoprotein (Env), clade B pseudovirus (HIV-1)
[10] = biological target: HIV-1 94UG103 envelope glycoprotein (Env), clade A pseudovirus (HIV-1)
[11] = biological target: HIV-1 MGRM-AG-005 envelope glycoprotein (Env), clade AG pseudovirus (HIV-1)
[12] = biological target: HIV-1 APV13 envelope glycoprotein (Env) on virus (HIV-1, clade B, isolate APV13)
[13] = biological target: HIV-1 92BR020 envelope glycoprotein (Env) on virus (HIV-1, clade B, isolate 92BR020)
[14] = biological target: HIV-1 94UG103 envelope glycoprotein (Env) on virus (HIV-1, clade A, isolate 94UG103)
[15] = biological target: HIV-1 JRCSF envelope glycoprotein (Env) (HIV-1) (UniProt P20871)
[16] = biological target: HIV-1 92UG024 envelope glycoprotein (Env) (HIV-1)
[17] = biological target: HIV-1 APV6 envelope glycoprotein (Env) (HIV-1)
[18] = biological target: HIV-1 APV17 envelope glycoprotein (Env) (HIV-1)
[19] = biological target: HIV-1 APV13 envelope glycoprotein (Env) (HIV-1)
[20] = biological target: HIV-1 MGRM-D-001 envelope glycoprotein (Env) (HIV-1)
[21] = biological target: HIV-1 JR-CSF Env E321aA (HIV-1 (isolate JR-CSF, clade B)) (UniProt P20871)
[22] = biological target: HIV-1 Env of pseudovirus ZM214 (HIV-1)
[23] = biological target: HIV-1 Env of pseudovirus ZM233 (HIV-1)
[24] = biological target: HIV-1 JR-FL Env E168K, on pseudovirus (HIV-1 isolate JR-FL (clade B))
[25] = biological target: Envelope protein of control pseudovirus MuLV (MuLV)
[26] = biological target: HIV-1 Env of pseudovirus CAP45 (HIV-1)
[27] = biological target: HIV-1 Env of isolate MGRM-Chronic-B-001 (subtype B), on pseudovirus (HIV-1)
[28] = biological target: HIV-1 Env of isolate 92UG005 (subtype D) (HIV-1)
[29] = biological target: HIV-1 Env of isolate MGRM-F1-015 (subtype F) (HIV-1)
[30] = biological target: HIV-1 Env of isolate MG RM-D-001 (subtype D) (HIV-1)
[31] = biological target: HIV-1 envelope glycoprotein (Env) of isolate MG RM-A-004 (HIV-1)
[32] = biological target: HIV-1 envelope glycoprotein (Env) of isolate MG RM-A-002 (HIV-1)

Chain of 1443_C16 (PG16) (TCN-116) (antibody) (VH): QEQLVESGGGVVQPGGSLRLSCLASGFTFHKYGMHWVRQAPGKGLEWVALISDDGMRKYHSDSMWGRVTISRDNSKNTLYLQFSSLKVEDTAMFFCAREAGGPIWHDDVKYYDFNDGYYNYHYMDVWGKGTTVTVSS
Chain of 1443_C16 (PG16) (TCN-116) (antibody) (VL): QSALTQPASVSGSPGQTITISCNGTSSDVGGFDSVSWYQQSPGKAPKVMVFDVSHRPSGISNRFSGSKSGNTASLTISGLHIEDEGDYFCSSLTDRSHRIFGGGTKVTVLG
Chain of 5329_C19 (PGT-136) (antibody) (VH): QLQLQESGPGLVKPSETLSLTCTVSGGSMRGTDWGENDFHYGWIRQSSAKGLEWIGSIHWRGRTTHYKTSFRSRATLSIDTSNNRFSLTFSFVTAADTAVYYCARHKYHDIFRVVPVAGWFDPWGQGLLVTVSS
Chain of 5329_C19 (PGT-136) (antibody) (VL): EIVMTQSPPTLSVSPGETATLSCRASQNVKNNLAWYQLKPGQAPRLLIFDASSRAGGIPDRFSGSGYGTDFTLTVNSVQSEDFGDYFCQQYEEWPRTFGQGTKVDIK

With 5145_B14 (PGT-127) (antibody) the Fold IC50 increase relative to wild-type [1] was 0.4 fold.
With 5123_A06 (PGT-125) (antibody) the Neutralization by PGT-125, IC50 [2] was 0.0137 µg/mL, the Neutralization by PGT-125, IC80 [2] was 0.0494 µg/mL and the Neutralization by PGT-125, IC90 [2] was 0.106 µg/mL. It also gave a Neutralization by PGT-125, IC95 [2] of 0.216 µg/mL, a Neutralization by PGT-125, IC50 [3] of 0.0156 µg/mL and a Neutralization by PGT-125, IC80 [3] of 0.0462 µg/mL. It also gave a Neutralization by PGT-125, IC90 [3] of 0.0873 µg/mL, a Neutralization by PGT-125, IC95 [3] of 0.157 µg/mL and a Neutralization by PGT-125, IC50 [4] of 0.0128 µg/mL. It also gave a Neutralization by PGT-125, IC80 [4] of 0.0414 µg/mL, a Neutralization by PGT-125, IC90 [4] of 0.0821 µg/mL and a Neutralization by PGT-125, IC95 [4] of 0.154 µg/mL. It also gave a Neutralization by PGT-125, IC50 [5] of 0.0214 µg/mL, a Neutralization by PGT-125, IC80 [5] of 0.0738 µg/mL and a Neutralization by PGT-125, IC90 [5] of 0.156 µg/mL. The Neutralization by PGT-125, IC95 [5] was 0.323 µg/mL.
In the case of 5141_B17 (PGT-126) (antibody), the Neutralization IC80 [6] is reported as > 10 µg/mL, the Neutralization IC90 [6] is reported as > 10 µg/mL and the Neutralization IC95 [6] is reported as > 10 µg/mL. The neutralization IC50 [6] was > 10 µg/mL.
For 4858_P08 (PGT-123) (antibody), the IC50, pseudovirus neutralization [7] was > 10 µg/mL, the IC80 (pseudovirus neutralization) [7] was > 10 µg/mL and the IC90 (pseudovirus neutralization) [7] was > 10 µg/mL. For the same substance, the IC95 (pseudovirus neutralization) [7] was > 10 µg/mL, the IC50, pseudovirus neutralization [8] was > 10 µg/mL and the IC80 (pseudovirus neutralization) [8] was > 10 µg/mL. The IC90 (pseudovirus neutralization) [8] was > 10 µg/mL, the IC95 (pseudovirus neutralization) [8] was > 10 µg/mL and the IC50, pseudovirus neutralization [9] was 0.0328 µg/mL. It also gave an IC80 (pseudovirus neutralization) [9] of 0.145 µg/mL, an IC90 (pseudovirus neutralization) [9] of 0.339 µg/mL and an IC95 (pseudovirus neutralization) [9] of 0.726 µg/mL. The IC50, pseudovirus neutralization [10] was 0.846 µg/mL, the IC80 (pseudovirus neutralization) [10] was 3.29 µg/mL and the IC90 (pseudovirus neutralization) [10] was 8.56 µg/mL. For the same substance, the IC95 (pseudovirus neutralization) [10] was > 10 µg/mL, the IC50, pseudovirus neutralization [11] was 0.104 µg/mL and the IC80 (pseudovirus neutralization) [11] was 1.28 µg/mL. For the same substance, the IC90 (pseudovirus neutralization) [11] was 6.38 µg/mL and the IC95 (pseudovirus neutralization) [11] was > 10 µg/mL.
For 4877_D15 (PGT-122) (antibody), the Neutralization IC80 [12] was 4.14 µg/mL, the Neutralization IC90 [12] was 8.6 µg/mL and the Neutralization IC95 [12] was > 10 µg/mL. For the same substance, the neutralization IC50 [12] was 0.992 µg/mL, the Neutralization IC80 [13] was 0.0929 µg/mL and the Neutralization IC90 [13] was 0.168 µg/mL. The Neutralization IC95 [13] was 0.289 µg/mL, the neutralization IC50 [13] was 0.0337 µg/mL and the Neutralization IC80 [14] was 6.58 µg/mL. The Neutralization IC90 [14] was > 10 µg/mL, the Neutralization IC95 [14] was > 10 µg/mL and the neutralization IC50 [14] was 1.46 µg/mL.
5329_C19 (PGT-136) (antibody) was tested, and the Neutralization IC80 [15] was > 10 µg/mL, the Neutralization IC90 [15] was > 10 µg/mL and the Neutralization IC95 [15] was > 10 µg/mL. For the same substance, the neutralization IC50 [15] was > 10 µg/mL, the Neutralization IC80 [16] was 0.619 µg/mL and the Neutralization IC90 [16] was 1.96 µg/mL. The Neutralization IC95 [16] was 5.97 µg/mL, the neutralization IC50 [16] was 0.0915 µg/mL and the Neutralization IC80 [17] was > 10 µg/mL. For the same substance, the Neutralization IC90 [17] was > 10 µg/mL, the Neutralization IC95 [17] was > 10 µg/mL and the neutralization IC50 [17] was > 10 µg/mL. For the same substance, the Neutralization IC80 [18] was > 10 µg/mL, the Neutralization IC90 [18] was > 10 µg/mL and the Neutralization IC95 [18] was > 10 µg/mL. For the same substance, the neutralization IC50 [18] was > 10 µg/mL, the Neutralization IC80 [19] was > 10 µg/mL and the Neutralization IC90 [19] was > 10 µg/mL. The Neutralization IC95 [19] was > 10 µg/mL, the neutralization IC50 [19] was > 10 µg/mL and the Neutralization IC80 [20] was > 10 µg/mL. The Neutralization IC90 [20] was > 10 µg/mL, the Neutralization IC95 [20] was > 10 µg/mL and the neutralization IC50 [20] was > 10 µg/mL.
Substance 5136_H01 (PGT-131) (antibody) has a Fold IC50 increase relative to wild-type [21] of 1.8 fold.
With 1443_C16 (PG16) (TCN-116) (antibody) the IC50, pseudovirus neutralization (TZM-bl assay) [22] was > 25 µg/mL, the IC50, pseudovirus neutralization (TZM-bl assay) [23] was < 0.01 µg/mL and the IC50 (ug/ml), pseudovirus neutralization, TZM-bl assay [24] was 0.006 µg/mL. The IC50, pseudovirus neutralization (TZM-bl assay), control virus [25] was > 25 µg/mL and the IC50, pseudovirus neutralization (TZM-bl assay) [26] was < 0.01 µg/mL.
With PGV04 (antibody) the IC50, single-round pseudovirus neutralization [27] was 0.048 µg/mL, the IC50 (µg/mL), pseudovirus neutralization [28] was 0.44 µg/mL and the IC50 (µg/mL), pseudovirus neutralization [29] was 0.179 µg/mL. The IC50 (µg/mL), pseudovirus neutralization [30] was > 50 µg/mL, the IC50 [31] was 0.175 µg/mL and the IC50 [32] was 0.093 µg/mL.
